Laboratory results from IntAct's records for PubMed 22797597.

B1: TRAF2 and NCK-interacting protein kinase (Homo sapiens), Q9UKE5 (parent)
chain: MASDSPARSLDEIDLSALRDPAGIFELVELVGNGTYGQVYKGRHVKTGQLAAIKVMDVTGDEEEEIKQEINMLKKYSHHRNIATYYGAFIKKNPPGMDDQLWLVMEFCGAGSVTDLIKNTKGNTLKEEWIAYICREILRGLSHLHQHKVIHRDIKGQNVLLTENAEVKLVDFGVSAQLDRTVGRRNTFIGTPYWMAPEVIACDENPDATYDFKSDLWSLGITAIEMAEGAPPLCDMHPMRALFLIPRNPAPRLKSKKWSKKFQSFIESCLVKNHSQRPATEQLMKHPFIRDQPNERQVRIQLKDHIDRTKKKRGEKDETEYEYSGSEEEEEENDSGEPSSILNLPGESTLRRDFLRLQLANKERSEALRRQQLEQQQRENEEHKRQLLAERQKRIEEQKEQRRRLEEQQRREKELRKQQEREQRRHYEEQMRREEERRRAEHEQEYIRRQLEEEQRQLEILQQQLLHEQALLLEYKRKQLEEQRQAERLQRQLKQERDYLVSLQHQRQEQRPVEKKPLYHYKEGMSPSEKPAWAKEVEERSRLNRQSSPAMPHKVANRISDPNLPPRSESFSISGVQPARTPPMLRPVDPQIPHLVAVKSQGPALTASQSVHEQPTKGLSGFQEALNVTSHRVEMPRQNSDPTSENPPLPTRIEKFDRSSWLRQEEDIPPKVPQRTTSISPALARKNSPGNGSALGPRLGSQPIRASNPDLRRTEPILESPLQRTSSGSSSSSSTPSSQPSSQGGSQPGSQAGSSERTRVRANSKSEGSPVLPHEPAKVKPEESRDITRPSRPASYKKAIDEDLTALAKELRELRIEETNRPMKKVTDYSSSSEESESSEEEEEDGESETHDGTVAVSDIPRLIPTGAPGSNEQYNVGMVGTHGLETSHADSFSGSISREGTLMIRETSGEKKRSGHSDSNGFAGHINLPDLVQQSHSPAGTPTEGLGRVSTHSQEMDSGTEYGMGSSTKASFTPFVDPRVYQTSPTDEDEEDEESSAAALFTSELLRQEQAKLNEARKISVVNVNPTNIRPHSDTPEIRKYKKRFNSEILCAALWGVNLLVGTENGLMLLDRSGQGKVYNLINRRRFQQMDVLEGLNVLVTISGKKNKLRVYYLSWLRNRILHNDPEVEKKQGWITVGDLEGCIHYKVVKYERIKFLVIALKNAVEIYAWAPKPYHKFMAFKSFADLQHKPLLVDLTVEEGQRLKVIFGSHTGFHVIDVDSGNSYDIYIPSHIQGNITPHAIVILPKTDGMEMLVCYEDEGVYVNTYGRITKDVVLQWGEMPTSVAYIHSNQIMGWGEKAIEIRSVETGHLDGVFMHKRAQRLKFLCERNDKVFFASVRSGGSSQVFFMTLNRNSMMNW

Variants of: B1
Settings: with STK26, Q9P289-1
Chain of STK26, Q9P289-1 (Q9P289 whole entry, looked up): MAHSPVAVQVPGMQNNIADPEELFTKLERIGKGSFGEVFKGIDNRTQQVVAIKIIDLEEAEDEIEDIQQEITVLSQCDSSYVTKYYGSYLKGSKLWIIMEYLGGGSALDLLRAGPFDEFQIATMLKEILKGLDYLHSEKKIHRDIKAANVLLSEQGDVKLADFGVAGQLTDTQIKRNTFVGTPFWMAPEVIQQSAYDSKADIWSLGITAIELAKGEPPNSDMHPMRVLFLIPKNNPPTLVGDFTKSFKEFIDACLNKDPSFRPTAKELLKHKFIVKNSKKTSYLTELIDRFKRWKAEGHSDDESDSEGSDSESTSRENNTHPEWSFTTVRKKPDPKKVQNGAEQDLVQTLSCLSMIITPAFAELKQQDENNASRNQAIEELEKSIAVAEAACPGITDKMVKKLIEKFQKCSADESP

effect of a mutation on the interaction | Variant
increasing interaction strength | K54A
increasing interaction strength | R152A;D153A
